14 sequences from the DeepSol protein solubility set can be followed below.

The series can be described thus: soluble on expression in E. coli; label from the status in PepcDB or PDB records.
For “MIGAVNSVEAVITSIQGLSGSPEDLSALHDLLRGAQDSLRAEPGVNFSTLDQLDASKHSLGYLYFLEVLTCGPVSKEKAAYEIPIIARFINSCDAGQIRLASYKFVSLCKILKDHVIALGDPLRGVGPLLNAVQKLQVSSKRLTALHPDVLQLCLQAKSYKSGFSILSDDIVEIDQPRDFFLYSYYGGMICIGLKRFQKALELLYNVVTAPMHQVNAIALEAYKKYILVSLIHNGQFTNTLPKCASTAAQRSFKNYTGPYIELGNCYNDGKIGELEALVVARNAEFEEDKNLGLVKQAVSSLYKRNILRLTQKYLTLSLQDIANMVQLGNAKEAEMHVLQMIQDGQIHALINQKDGMVRFLEDPEQYKSSEMIEIMDSVIQRTIGLSKNLLAMDESLSCDPLYLGKVGRERQRYDFGDDFDTVPQKFSM”, the “soluble on expression in E. coli” value is given as “soluble”.
In the case of “MVLFTGKTVEEAIETGLQELGLSRLKAHIKVISKEKKGFLGFGKKPAQVDIEGISDKTVYKADKKATRGVPEDINRQNTPAVNSADVEPEEIKATQRLEAEDTKVVPLMSEDSPAQTPSNLAETVTETKAQQPSIPVEESEVPQDAGNDGFSKDIEKAAQEVSDYVTKIIYEMDIEATVETSNNRRQINLQIETPEAGRVIGYHGKVLKSLQLLAQNFLHDRYSKNFSVSLNVHDYVEHRTETLIDFTQKVAKRVLESGQDYTMDPMSNSERKIVHKTVSSIEGVDSYSEGNDPNRYVVVSLQR”, the “soluble on expression in E. coli” value was “not soluble”.
In the case of “METIIHKIRLFDVAQADAFEFWVQNVDYATCPDLPSVVRFDVHRASLQANAPYHYVEVIKITDRAAFDADMETSTFAGLVQAFSRMAEVVEELAGEQLGSGYAAG”, the “soluble on expression in E. coli” value is “soluble”.
As to “MGNNSSAQSSTPSLPIDSTFNLPSPLPSWPSGEGFAKGRIDLGGLEVSQVDTFNKVWTVYEGGQDNLGATFFEPSSVPEGFSILGFYAQPNNRKLFGWTLVGKDLSGDSLRPPVDYLLLWSGKSTKVENNKVETGYFWQPVPPDGYNAVGLIVTTSDEKPPLDKIRCVRSDLTDQSEPDALIWETNGFSVSSSKPVNRGTQASGVSVGTFFSNSPNPALPCLKNNNFDFSCMPSKPQIDALFQTYAPWIYFHKDEKYLPSSVNWFFSNGALLYKKGDESNPVPVEPNGLNLPQGEFNDGLYWLDLPVASDARKRVQCGDLQSMEVYLHIKPVFGGTFTDIAVWMFYPFNGPSRAKLKAASIPLGRIGEHIGDWEHFTLRISNFSGKLHRMYLSQHSGGSWADASEIEFQGGGNKPVAYASLNGHAMYSKPGLVLQGKDNVGIRNDTGKSEKVIDTAVRFRVVAAEYMRGELEEPAWLNYMRHWGPKIDYGHENEIRGVEKIMVGESLKTTFRSAIKGLPNEVFGEEGPTGPKLKRNWLGDEV”, the “soluble on expression in E. coli” value is on record as “not soluble”.
Next, “MGSDKIHHHHHHMMEYWIRRALEVVKTPFLLFDLSVVEKKYLEMKAALKKADIYYAVKANSHPRIISLLARLGSNFDVASKGEIEKLLALGVDGKRMSFGNTIKREEDIAFAYKNGIRLFAVDSEMEVEKVAINAPGSFVFVRVETDGADADWPLSRKFGTNPEHALQLLSYASKMKLIPAGLSFHVGSQNLNPESWKKAIEIAGRVFKKAMRSGLNLFLLNVGGGFPVQHTKPIPSMEEIGKAIEEAIDENLWFVHNLKVIAEPGRYMVGEAGWLVTKVLLKSERSGEKWVYIDAGVFHGLAETIQNFEYEIRVLGKEREELEEYHLAGPTCDSVDVIYDRIFLPKSITLNDLVCFINAGAYTVEYNTRFNGIEPPKMVFIEELTEISIEEKIKTRVLD”: “not soluble”.
Next, “MGSDKIHHHHHHMAHQPVGTGSSIEVSVNPGHSRTSGVISHMSDTLRVAIVGDSDLQGAHVAISKSEFSPAADATDYLVLKDKPATISISRPSSQRVVGITTGSTTLIDFPEGTGSPFGINDMVTLRVIDQPYFEAAIGFGTVTKVWNAANIGGHYSTRITVNADTSGIKTDYVSTNWAELRSSFKVSSLGIGVGGKTGALYFQQVQITGE”: “not soluble”.
For “MSLDQREILQKFLDEAQSKKITKEEFANEFLKLKRQSTKYKADKTYPTTVAEKPKNIKKNRYKDILPYDYSRVELSLITSDEDSSYINANFIKGVYGPKAYIATQGPLSTTLLDFWRMIWEYSVLIIGMACMEYEMGKKKCERYWAEPVEMQLEFGPFSVSCEAEKRKSDYIIRTLKVKFNSETRTIYQFHYKNWPDHDVPSSIDPILELIWDVRCYQEDDSVPICIHCSAGCGRTGVICAIDYTWMLLKDGIIPENFSVFSLIREMRTQRPSLVQTQEQYELVYNAVLELFKRQMDVIRDKHSGTESQAKEGHHHHHH”, the “soluble on expression in E. coli” value is listed as “soluble”.
Take “GMDVLQKEIDEVYATHPTAHEALDNGIVEQHQQFVRSLTEVNGGCAVISDLSNRKSYVTVHPWANFLGLTPEEAALSVIDSMDEDCIYRRIHPEDLVEKRLMEYKFFQKTFSMSPGERLKYRGRCRLRMMNEKGVYQYIDNLVQIMQNTPAGNVWLIFCLYSLSADQRPEQGIYATITQMERGEVETLSLSEEHRNILSEREKEILRCIRKGLSSKEIAATLYISVNTVNRHRQNILEKLSVGNSIEACRAAELMKLL”: the “soluble on expression in E. coli” value was “soluble”.
Regarding “ATKQAIEKDPWLSPEQKKAQKEKAKARLDEGLKALKAADSLEILKVTEEAFVDKEKNPDSIPNQHKAGTADQARKQALDSL”, the “soluble on expression in E. coli” value was “not soluble”.
Regarding “LEYSDSIDLLNMDLYDLMKLADRLTHYDAGETVSYAISYNINYTNYCTASCPICAFYVPYKNKRFGKGYELTKEQVRKEALIAKQKGATEIHIVGGFDPDLSIEYYEDIFRTIRGIMPNVAIKAFTIPEIDFIARTTGNSIKETVLRFMDAGMNAHTGGGAEIFDQEIRKYITTPEKVSGEKWLEDAKIIHSLGLKGNSTMTYGHIEGWEHIIDHMIRLRDNQIEVPGFLSFIPLKFSPENTALLRSGRVHGPAPVDKDLKVIALARIIMGRAIRNISVYWVAIGKLTAQIAINGGGNDLVGTAYSEKVFGATDRKTSTTTEELNNMIRQAGKIPGVR”, the “soluble on expression in E. coli” value is “not soluble”.
Consider “MTRPPAGTPYWDAAELPTQPQLHGVVTADVAVVGAGLAGLSCAYHLAERAPGLDIAVVDAEHPAAGASGRGTGLLGPRAGPAVDRAVRRFGPQTARRMHRASERAVRDVLALCARLDVPCGLRTGEQLVATRSSAGLAALARQARACRELGLDVPVLTPAGIRDRVGVPYRAALLHRPAATLDPAALTCALARACADKGVRFYGRSPLLALRPGDLVGPELVLPHGRLYAGQAVLAVNSAAQALDLPVGTVLPLEVYAVATEPLSAPAYEALGGRAGHAVVDAVPMAPYFRLLPDRGLVAGGGTATVPAGVGAPRLQAVRERAWSWLERWLRALHPDLARVRVTHRWSGRIGMTGDDLPVVGPVPGYDDVWYIGGCCGHGLALSVAHGAHVAAALLGEPEPGEPLPWHRSRAPRLPARGPAGPLLRAYVDAMGRIARHTCLEHHHHHH”, for which the “soluble on expression in E. coli” value is “not soluble”.
Take “MPYIIPTFEEIRAAILRDVKNLLPDADTGPDSDAFIRASSTASAVYGLYQHQLWMARQILPDTADTAYLESHAALRGITRKPATKATGTLTLTGTPGAAVPAGTEARHIATGATFRTTATVTLAENGTASAPCEASVAGAMPDYTAETVLLTAPPPGVQSTASLALTGGTDTETDAELLERLLFHFRNPPGGGNRYDYKRWALEVPGVTGAWVYPLRRGLGTVDVAVLSAGGLPTPELLAAAQARIDERRPVACKDARVLAPTPLAVDVRVRVRLAGTTLPVVTTQVREALAAHFGGYEPGGQVVRSRLEAIISGIPGVADRDLTAPSANVQAVVDASRVEWPRLGTVTVEAMLEHHHHHH”: the “soluble on expression in E. coli” value is recorded as “soluble”.
For the sequence “GPGTFGTAKARYDFCARDRSELSLKEGDIIKILNKKGQQGWWRGEIYGRIGWFPSNYVEEDYSEYLPETGGGSGSSMTYKLILNGKTLKGETTTEAVDAATAEKVFKQYANDNGVDGEWTYDDATKTFTVTEHSLEHHHHHH”, the “soluble on expression in E. coli” value is “soluble”.
As for “MCTKNETKPLPSFIEERLNFHIQDLIKSNENQKHLVLGKRPSENAVVMQSNDYLSLSHNELIQKAHRDAISERDDNVVMSAIFLQDDQSKPAFEHQLATFVGMESCLLSQSGWAANIGLLQTICAPNLPVYIDFFAHMSLWEGARTAGAQIHPFMHNNMNHLRKQIQRHGAGIIVVDSVYSTIGTIAPLRAIYEMAKEFDCGLVVDESHSLGTHGPEGSGLLQKLGLTQMVDFVTVSLAKTFAYRAGAILGPNKLAQSLPFVAYPAIFSSTVLPQEVVRLEKTLEVIKAADDKRECLFKRAKELAIGLKRIGFNIRSESQIIALECGSERNTERVRDFLEERDVFGAVFCRPATGRNKNIIRFSVNADMTAQQVDHVLSACQEAFDHPDLEFV”, the “soluble on expression in E. coli” value is reported as “not soluble”.
